Consider seven substances from paper doi:10.1101/718155.

In assay [1] the target is S100A4. Nature of the assay: ITC. Background: Isothermal titration calorimetry measures the heat released or taken up as one component is titrated into another.
The target in the next assay is S100A2. Nature of the assay: FP.
Assay [2] concerns the target S100A4. Nature of the assay: FP.
Assay [3] addresses C-ERMAD (516-560 and 516-586) peptide (UniProt P15311). Description: FP.
The next assay deals with S100A1. Nature of the assay: FP.
A further assay deals with S100P. Description: FP.
A further assay concerns the target S100A14. Nature of the assay: FP.
In the next assay the target is S100A15. Description: FP.
The next assay deals with S100A5. Nature of the assay: FP.
A further assay deals with S100A7. Nature of the assay: FP.
In another assay the target is S100G. Nature of the assay: FP.
The target of another assay is S100A3. Description: FP.
The target of another assay is S100A6. Description: FP.
A further assay concerns the target S100A11. Nature of the assay: FP.

C-ERMAD (516-560 and 516-586) peptide (from UniProt P15311 516-586), sequence (P15311 516-586): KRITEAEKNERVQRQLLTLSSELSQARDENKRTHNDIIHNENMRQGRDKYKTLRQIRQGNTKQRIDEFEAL
p53 (1-60; 17-53) peptide, sequence (P04637 1-60): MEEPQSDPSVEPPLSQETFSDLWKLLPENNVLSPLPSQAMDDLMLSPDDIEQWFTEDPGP
C-ERMAD (516-560 and 516-586) peptide (UniProt P15311), sequence (P15311 516-586): as the sequence (P15311 516-586) above

As for “C-ERMAD (516-560 and 516-586) peptide (from UniProt P15311 516-586)”, the Kd worked out at 35 µM with S100A4 [1], 5.4 µM with S100A2 and 6.1 µM in the assay with S100A4 [2].

With S100A4, the Kd in [3] is 11 µM.

For the substance MK2, the Kd came to 4.5 µM in the assay with S100A2, 15 µM with S100A1 and 2.7 µM with S100P.

In the case of FOR20, the Kd with S100A2 amounted to 0.27 µM; with S100A14 it was 63 µM; with S100A15, 17 µM; in the assay with S100A5 it was 1.9 µM; with S100A7, 5.9 µM; with S100G, 3.8 µM. The Kd with S100A1 turned out to be 0.5 µM; with S100P, 1.2 µM; in the assay with S100A4 [2] it was 2 µM; with S100A3, 29 µM; with S100A6, 0.007 µM.

As for “p53 (1-60; 17-53) peptide (from UniProt P04637 1-60)”, the Kd in the assay with S100A11 was 12 µM; with S100A2 it was 5.2 µM; in the assay with S100A5, 67 µM; with S100A4 [2], 2.1 µM; with S100A3, 7.7 µM; with S100A6, 2.2 µM.

The substance S100A2 gave a Kd in assay [3] of 15 µM.

In the case of MNK1, the Kd with S100A2 turned out to be 18 µM; with S100P it was 2.5 µM; with S100A4 [2], 24 µM; in the assay with S100A6, 6.7 µM.

What is called Kd is the constant that tells how readily two partners part at equilibrium. A lower Kd goes with higher affinity.
